Experiments:
Experiment in all cases: cell_activity
[1] = tested on: TALEN A2 NT-αN (synthetic); details: HeLa; pair A1/A2
[2] = tested on: TALEN C2 NT-αN (synthetic); details: HeLa; pair C1/C2
[3] = tested on: TALEN A1 NT-αN (synthetic); details: HeLa; pair A1/A2
[4] = tested on: GinC4 zinc finger recombinase (synthetic); details: HEK293T; 107-fold in p263
[5] = tested on: GinC4 + Gin-Avr15Δ120 heterodimer (synthetic); details: HEK293T; ZFR-TALER heterodimer
[6] = tested on: Gin-Avr15Δ120 (synthetic repeats) (synthetic); details: for activity (fold luciferase reduction): HEK293T
[7] = tested on: Gin-AvrXa7 Δ128 (synthetic); details: E. coli
[8] = tested on: Gin-Pth15Δ120 (synthetic repeats) (synthetic); details: E. coli

Sequence: ATTCTTCCAGAATTGA (double strand) [TALEN A2 half-site]
- activity (fold over NT-T) [1]: 9

Sequence: CAGAATTGATACTGACT (double strand) [TALEN C2 half-site]
- activity (fold over NT-T) [2]: 2

Sequence: CCTGCAGCTCTCATTTT (double strand) [TALEN A1 half-site]
- activity (fold over NT-T) [3]: 9

Sequence: GCGGGAGGCGTGTCCAAAACCATGGTTTACAG (double strand) [C4-20G (C4 zinc finger site flanking Gin core)]
- activity (fold luciferase reduction) [4]: > 80

Sequence: GCGGGAGGCGTGTCCAAAACCATGGTTTACAGGGTTCCTATAAACCCCCTCCAACCAGGTGCTAA (double strand) [Avr-G-ZF hybrid site]
- activity (fold luciferase reduction) [5]: > 140

Sequence: GTGGTGTACAGTAGGGGGAGATGCAGCTGCTTCCAAAACCATGGTTTACAGGGTGGTTGCATCTCCCCCTACTGTACACCAC (double strand) [PthXo1-32G]
- activity (fold less than cognate site) ([6]; E. coli): > 600
- activity (fold less than cognate) ([7]; non-cognate TALE site): > 100
- activity (fold over non-cognate site) [8]: > 600

Sequence: TTAGCACCTGGTTGGAGGGGGTTTATAGCTTCACGAAATATTATAAATTATCAGGTTCCTATAAACCCCCTCCAACCAGGTGCTAA (double strand) [Avr32T]
- activity (fold less than cognate core) ([6]; E. coli): > 1000
- activity (fold less than cognate) [7]: > 100

Sequence: TTAGCACCTGGTTGGAGGGGGTTTATAGCTTCAGCTTCATCCAAAACCATGGTTTACAGGGTTCCGGTTCCTATAAACCCCCTCCAACCAGGTGCTAA (double strand) [Avr44G]
- activity (fold luciferase reduction) [6]: 20

Sequence: TTAGCACCTGGTTGGAGGGGGTTTATAGCTTCATCCAAAACCATGGTTTACAGGGTTCCTATAAACCCCCTCCAACCAGGTGCTAA (double strand) [Avr32G]
- activity (fold luciferase reduction) [6]: 6
- activity (fold less than cognate site) [8]: > 600

Sequence: TTAGCACCTGGTTGGAGGGGGTTTATAGCTTCATCCAAAACCGGGGTTTACAGGGTTCCTATAAACCCCCTCCAACCAGGTGCTAA (double strand) [Avr32GG]
- activity (fold less than cognate) [7]: > 100

Source: patent US20230304022
